# Assay results: patent US8236764
# System: Human FV isolated from plasma
# Sequence (chain, as listed by the source): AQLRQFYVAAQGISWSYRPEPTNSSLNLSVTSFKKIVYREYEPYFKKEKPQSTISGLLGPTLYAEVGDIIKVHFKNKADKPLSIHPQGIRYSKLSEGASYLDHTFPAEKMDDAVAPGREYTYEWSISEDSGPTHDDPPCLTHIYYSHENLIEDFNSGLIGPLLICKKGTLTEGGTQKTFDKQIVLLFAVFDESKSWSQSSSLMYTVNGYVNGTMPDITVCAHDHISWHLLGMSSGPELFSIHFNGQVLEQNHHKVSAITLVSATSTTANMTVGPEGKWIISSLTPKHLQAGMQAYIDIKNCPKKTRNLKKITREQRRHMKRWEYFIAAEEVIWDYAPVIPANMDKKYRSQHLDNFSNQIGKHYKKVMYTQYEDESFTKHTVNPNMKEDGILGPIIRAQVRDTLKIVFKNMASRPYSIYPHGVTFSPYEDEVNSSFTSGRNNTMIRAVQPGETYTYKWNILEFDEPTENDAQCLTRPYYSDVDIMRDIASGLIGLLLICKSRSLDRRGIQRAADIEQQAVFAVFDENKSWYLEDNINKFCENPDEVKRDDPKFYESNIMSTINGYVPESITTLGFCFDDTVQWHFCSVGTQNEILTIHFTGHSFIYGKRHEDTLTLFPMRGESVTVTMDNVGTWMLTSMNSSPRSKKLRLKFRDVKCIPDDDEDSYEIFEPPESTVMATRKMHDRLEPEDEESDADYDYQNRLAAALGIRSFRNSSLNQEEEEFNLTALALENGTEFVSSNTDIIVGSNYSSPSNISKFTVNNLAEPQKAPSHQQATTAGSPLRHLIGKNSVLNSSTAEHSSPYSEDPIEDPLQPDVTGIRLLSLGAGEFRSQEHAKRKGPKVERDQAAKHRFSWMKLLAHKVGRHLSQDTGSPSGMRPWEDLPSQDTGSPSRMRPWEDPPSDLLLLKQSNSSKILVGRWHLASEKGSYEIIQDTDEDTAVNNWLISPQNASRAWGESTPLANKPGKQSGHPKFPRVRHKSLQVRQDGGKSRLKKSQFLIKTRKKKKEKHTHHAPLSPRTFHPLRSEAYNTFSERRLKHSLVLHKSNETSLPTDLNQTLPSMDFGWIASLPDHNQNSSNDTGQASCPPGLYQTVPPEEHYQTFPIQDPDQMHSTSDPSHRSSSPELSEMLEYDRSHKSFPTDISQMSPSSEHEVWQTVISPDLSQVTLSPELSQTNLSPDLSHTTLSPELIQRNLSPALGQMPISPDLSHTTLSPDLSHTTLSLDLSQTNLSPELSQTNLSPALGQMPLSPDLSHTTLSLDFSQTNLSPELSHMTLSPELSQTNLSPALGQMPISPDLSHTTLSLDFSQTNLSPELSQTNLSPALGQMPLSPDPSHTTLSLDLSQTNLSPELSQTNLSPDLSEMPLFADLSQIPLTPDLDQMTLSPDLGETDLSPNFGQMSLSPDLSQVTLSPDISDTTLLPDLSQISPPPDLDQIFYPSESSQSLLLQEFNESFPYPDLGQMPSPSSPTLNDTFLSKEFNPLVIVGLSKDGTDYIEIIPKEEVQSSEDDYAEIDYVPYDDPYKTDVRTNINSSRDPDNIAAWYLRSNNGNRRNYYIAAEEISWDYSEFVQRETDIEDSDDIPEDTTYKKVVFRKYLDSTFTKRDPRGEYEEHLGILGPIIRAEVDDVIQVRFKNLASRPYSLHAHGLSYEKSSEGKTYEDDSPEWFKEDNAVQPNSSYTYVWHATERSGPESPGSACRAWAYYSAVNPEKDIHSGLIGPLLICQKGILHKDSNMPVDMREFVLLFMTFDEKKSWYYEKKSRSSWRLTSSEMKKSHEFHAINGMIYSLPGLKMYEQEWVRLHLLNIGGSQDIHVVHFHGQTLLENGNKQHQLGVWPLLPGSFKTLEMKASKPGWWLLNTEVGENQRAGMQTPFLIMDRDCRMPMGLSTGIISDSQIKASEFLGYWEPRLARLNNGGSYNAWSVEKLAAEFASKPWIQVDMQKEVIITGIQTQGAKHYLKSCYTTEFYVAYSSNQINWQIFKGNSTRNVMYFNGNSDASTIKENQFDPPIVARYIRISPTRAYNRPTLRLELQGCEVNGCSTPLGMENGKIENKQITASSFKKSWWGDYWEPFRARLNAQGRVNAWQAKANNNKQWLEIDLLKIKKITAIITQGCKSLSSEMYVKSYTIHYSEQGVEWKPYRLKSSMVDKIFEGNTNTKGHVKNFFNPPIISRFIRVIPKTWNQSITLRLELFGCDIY
row,Substance,activation of FV (cofactor activity by PT-based assay using FV-deficient plasma; cleavage by SDS-PAGE)
1,human thrombin,murine thrombin activates human FV in a similar fashion to human thrombin
2,murine thrombin,murine thrombin activates human FV in a similar fashion to human thrombin
